Assay results published in publication PMC3531806.

Target: T1, H1N1 WSN NP protein (nucleoprotein of influenza A/WSN/1933), wild type (influenza A virus A/WSN/1933 (H1N1)), P15682
T1 chain: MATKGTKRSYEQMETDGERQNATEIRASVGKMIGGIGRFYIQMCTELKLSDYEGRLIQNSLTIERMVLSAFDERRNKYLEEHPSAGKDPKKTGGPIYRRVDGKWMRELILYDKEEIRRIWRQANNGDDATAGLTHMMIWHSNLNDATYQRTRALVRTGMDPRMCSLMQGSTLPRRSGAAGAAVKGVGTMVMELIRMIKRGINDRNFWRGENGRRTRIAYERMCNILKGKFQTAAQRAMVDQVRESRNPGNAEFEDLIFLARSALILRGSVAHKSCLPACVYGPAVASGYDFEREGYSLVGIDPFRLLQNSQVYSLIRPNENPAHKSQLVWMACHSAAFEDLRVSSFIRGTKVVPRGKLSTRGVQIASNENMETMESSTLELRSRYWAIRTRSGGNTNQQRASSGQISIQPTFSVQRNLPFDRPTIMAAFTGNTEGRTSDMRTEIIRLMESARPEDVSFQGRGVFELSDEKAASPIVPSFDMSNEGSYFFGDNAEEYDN
Assay: SEC
Settings: remark: other sources report otherwise

B1: H1N1 WSN NP protein (nucleoprotein of influenza A/WSN/1933), wild type, P15682 1-498 (natural protein)
chain: T1 chain
half-life (t1/2) of the dissociation of trimers to monomers: 10 h | stoichiometry N: 3
